According to article PMC12525494:

What was measured:
[1] = target: ST2 receptor on Raw 264.7 cells (mouse (endogenous in Raw 264.7)) (UniProt P14719)
[2] = target: ST2 receptor on Raw 264.7 cells (mouse (endogenous in Raw 264.7)) (UniProt P14719); remark: listed apart in the source

UniProt P14719, sequence (P14719 27-567): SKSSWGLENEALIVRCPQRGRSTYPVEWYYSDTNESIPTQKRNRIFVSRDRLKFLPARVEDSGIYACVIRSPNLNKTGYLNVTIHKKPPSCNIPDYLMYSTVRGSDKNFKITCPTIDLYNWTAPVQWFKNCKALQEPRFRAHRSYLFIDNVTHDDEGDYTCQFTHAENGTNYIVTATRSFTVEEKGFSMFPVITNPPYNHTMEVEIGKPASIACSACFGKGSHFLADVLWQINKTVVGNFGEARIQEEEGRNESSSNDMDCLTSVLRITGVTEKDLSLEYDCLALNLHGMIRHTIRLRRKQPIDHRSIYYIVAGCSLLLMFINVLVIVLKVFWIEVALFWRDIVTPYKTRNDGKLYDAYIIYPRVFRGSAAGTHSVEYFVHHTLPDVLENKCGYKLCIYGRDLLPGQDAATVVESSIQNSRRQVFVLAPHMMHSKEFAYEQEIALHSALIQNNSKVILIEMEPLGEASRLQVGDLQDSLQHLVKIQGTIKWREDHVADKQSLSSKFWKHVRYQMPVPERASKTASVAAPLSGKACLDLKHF

Question: What does the source list for “immunotoxin IL-33αS (murine IL-33 fused to the ribotoxin α-sarcin) (from UniProt P00655 28-177)”?
Answer: Viability (%) on Raw 264.7 cell line, 1 µM protein, 72 h [1]: 40%; MTT viability of Raw 264.7 cells, IC50 at 72 h [2]: 300 nM
